According to article PMC10276540:

Target: Ultramarine fluorescent protein
Experiment: AUC

stoichiometry N: 2
Substance: Ultramarine fluorescent protein
